Results as given in US10407503B2, “Fully human antibodies and fragments recognizing human c-Met” (THE REGENTS OF THE UNIVERSITY OF CALIFORNIA, priority 2012, dated 2019).

B1: E9 ScFv antibody: human anti-c-Met ScFv comprising SEQ ID NO:27; tested as phage-displayed clone (protein)
scFv: QVQLQESGGGVVQPGRSLRLSCAASGFTFSSYGMHWVRQAPGKGLEWVSAIGSSGGSTHDADTVKGRFTISRDNAKNSLYLQMNSLRAEDTAVYYCARDRARGFDYWGQGTLVTVSSGGGGGSGGGGSGGGGSEIVLTQSPSTLSASIGDRVTITCRASQGISSYLAWYQQKPGKAPKLLIYGASSLQSGVPSRFSGRGSGADFTLTISSLQPEDFATYYCQQLISYPLTFGGGTKVEIKR
modifications: phage-displayed; synthetic E9 ScFv sequence
B2: F1 ScFv antibody: human anti-c-Met ScFv comprising SEQ ID NO:28; tested as phage-displayed clone (protein)
scFv: QVQLVQSGAEVKKPGASVKVSCKASGYTFTDYYMHWVRQAPGEGLEWMGWMNPNSGGTNYAQKFQGRVTMTRDTSISTAYMELSRLRSDDTAVYYCARSHYWDSWSPGTLVTVSSGGGGGSGGGGSGGGGSSALTQPASVSGSPGQSITISCTGTSGDVGGYNYVSWYQQHPGKAPKLMIYDVSNRPSGVSNRFSGSKSGNTASLTISGLQAEDEADYYCTSYAGSRNLVFGGGTKLTVLG
modifications: phage-displayed; synthetic F1 ScFv sequence
B3: C2 ScFv antibody: human anti-c-Met ScFv comprising SEQ ID NO:26; tested as phage-displayed clone (protein)
scFv: QVQLQESGGGLVQPGGSLRLSCAASGFTFSSYAMSWVRQAPGKGLEWVSAISGSGGSTYYADSVKGRFTISRDNSKNTLYLQMNSLRAEDTAVYYCASQHVGEQSRYFDYWGQGTLVTVSSGGGGGSGGGGSGGGGSDIVMTQSPSSLSASIGDRVTITCRASHSISSYVNWYQKKPGKAPNLLIYAASYLPRGVPSRFSGSGLGTDFTLTISNLQPEDFATYYCQESYSTPYSFGQGTKVDIKR
modifications: phage-displayed; synthetic C2 ScFv sequence
B4: G1 ScFv antibody: human anti-c-Met ScFv comprising SEQ ID NO:30; tested as phage-displayed clone (protein)
scFv: QVQLQESGGGVVQPGGSLRLSCAASGFTFSSYSMNWVRQAPGKGLEWVSSISSSSSYIYYADSVKGRFTISRDNAKNSLYLQMNSLRAEDTAVYYCARDLPSDDYGDYDYYYYGMDVWGQGTTVTVSSGGGGGSGGGGSGGGGSQSVLTQPPSASGTPGQRVTLFCSGSSSNIASNSVKWYQQPPQRAPKLLMFSDDQRPSGVPVRFSASKSGTSASLAISGLQSEDEADYYCAAWDDSLNAEVFGGGTKVTVLG
modifications: phage-displayed; synthetic G1 ScFv sequence
B5: H5 ScFv antibody: human anti-c-Met ScFv comprising SEQ ID NO:32; tested as phage-displayed clone (protein)
scFv: QVQLQESGGGLVQPGGSLRLSCAASGFTFSNYAMSWVRQAPGKGLEWVSAISGSGGSTYYADSVKGRFTISRDNSKNTLYLQMNSLRAEDTAVYYCAKDRFRAAAYWGQGTLVTVSSGGGGGSGGGGSGGGGSQSVLTQPPSVSAAPGQKVTISCTGSSSNIGAGYDVHWYQQLPGTAPKLLIYGNSNRPSGVPDRFSGSKSGTSASLAISGLQSEDEADYYCAAWDDILNGEIFGGGTKVTVLG
modifications: phage-displayed; synthetic H5 ScFv sequence
B6: F11 ScFv antibody: human anti-c-Met ScFv comprising SEQ ID NO:29; tested as phage-displayed clone (protein)
scFv: QVQLQESGGGLLQPGGSLRLSCAASRFTFSNYAMSWVRQAPGKGLEWVSAISGSGASTYYADSVKGRFTISRDNSKNTLYLQMNSLRAEDTAVYYCSNLYGDYDYWGQGTLVTVSSGGGGGSGGGGSGGGGSQSVLTQPASVSGSPGQSITISCTGTSSDVGGYNYVSWYQQHPGKAPKLMIYDVSNRPSGVSNRFSGSKSGNTASLTISGLQAEDEADYYCSSYTSSSTLLFGGGTKLTVLG
modifications: phage-displayed; synthetic F11 ScFv sequence
B7: E9 ScFv antibody (phage-displayed) (scFv)
scFv: B1 scFv
notes: The fusion to the phage coat protein is not described
B8: C2 ScFv antibody (phage-displayed) (scFv)
scFv: B3 scFv
notes: as for B7
B9: G1 ScFv antibody (phage-displayed) (scFv)
scFv: B4 scFv
notes: as for B7
B10: H5 ScFv antibody (phage-displayed) (scFv)
scFv: B5 scFv
notes: as for B7
B11: F11 ScFv antibody (phage-displayed) (scFv)
scFv: B6 scFv
notes: as for B7

molecular target: T1, cell surface MET (Homo sapiens, UniProt P08581); test: Phage flow cytometry for binding to c-MET expressing cells; details: phage antibodies; Hcc827 or Hcc827-GR6 cells; FITC anti-M13 detection
T1 construct: endogenous in cells; host or cells: Hcc827 or Hcc827-GR6
Protocol: (§1) For phage antibodies, flow cytometry was used to confirm their binding to c-MET expressing cells. Bacteria culture containing phage was concentrated 30 times into PBS according to published method (Antibody Engineering Methods and Protocols, Benny K. C. Lo). 2˜5×105 c-MET positive Hcc827 or Hcc827-GR6 cells (Engelman et. al, Science, 2007) were incubated with 100 ul concentrated phage and 30 ul 4% milk-PBS on ice for 1 hour. Cells were then washed using flow buffer (PBS, 1% FBS, 2 mM EDTA), and the binding phage antibodies were detected by FITC conjugated anti-M13 monoclonal antibody (Santa Cruz Biotechnology, Cat# sc-53005 Fitc).
93 clones were randomly picked after 3 rounds of panning. The phage-containing supernatant was used for phage ELISA. Top 64 clones with highest A405 signal were sequenced, among which 19 distinctive clones with different sequences were identified. These distinctive clones were then tested for binding to cell surface MET by phage flow experiments. 8 of these clones show good binding to cell surface MET and were selected for the subsequent purification and characterizations.

T1 sequence (P08581 25-1390): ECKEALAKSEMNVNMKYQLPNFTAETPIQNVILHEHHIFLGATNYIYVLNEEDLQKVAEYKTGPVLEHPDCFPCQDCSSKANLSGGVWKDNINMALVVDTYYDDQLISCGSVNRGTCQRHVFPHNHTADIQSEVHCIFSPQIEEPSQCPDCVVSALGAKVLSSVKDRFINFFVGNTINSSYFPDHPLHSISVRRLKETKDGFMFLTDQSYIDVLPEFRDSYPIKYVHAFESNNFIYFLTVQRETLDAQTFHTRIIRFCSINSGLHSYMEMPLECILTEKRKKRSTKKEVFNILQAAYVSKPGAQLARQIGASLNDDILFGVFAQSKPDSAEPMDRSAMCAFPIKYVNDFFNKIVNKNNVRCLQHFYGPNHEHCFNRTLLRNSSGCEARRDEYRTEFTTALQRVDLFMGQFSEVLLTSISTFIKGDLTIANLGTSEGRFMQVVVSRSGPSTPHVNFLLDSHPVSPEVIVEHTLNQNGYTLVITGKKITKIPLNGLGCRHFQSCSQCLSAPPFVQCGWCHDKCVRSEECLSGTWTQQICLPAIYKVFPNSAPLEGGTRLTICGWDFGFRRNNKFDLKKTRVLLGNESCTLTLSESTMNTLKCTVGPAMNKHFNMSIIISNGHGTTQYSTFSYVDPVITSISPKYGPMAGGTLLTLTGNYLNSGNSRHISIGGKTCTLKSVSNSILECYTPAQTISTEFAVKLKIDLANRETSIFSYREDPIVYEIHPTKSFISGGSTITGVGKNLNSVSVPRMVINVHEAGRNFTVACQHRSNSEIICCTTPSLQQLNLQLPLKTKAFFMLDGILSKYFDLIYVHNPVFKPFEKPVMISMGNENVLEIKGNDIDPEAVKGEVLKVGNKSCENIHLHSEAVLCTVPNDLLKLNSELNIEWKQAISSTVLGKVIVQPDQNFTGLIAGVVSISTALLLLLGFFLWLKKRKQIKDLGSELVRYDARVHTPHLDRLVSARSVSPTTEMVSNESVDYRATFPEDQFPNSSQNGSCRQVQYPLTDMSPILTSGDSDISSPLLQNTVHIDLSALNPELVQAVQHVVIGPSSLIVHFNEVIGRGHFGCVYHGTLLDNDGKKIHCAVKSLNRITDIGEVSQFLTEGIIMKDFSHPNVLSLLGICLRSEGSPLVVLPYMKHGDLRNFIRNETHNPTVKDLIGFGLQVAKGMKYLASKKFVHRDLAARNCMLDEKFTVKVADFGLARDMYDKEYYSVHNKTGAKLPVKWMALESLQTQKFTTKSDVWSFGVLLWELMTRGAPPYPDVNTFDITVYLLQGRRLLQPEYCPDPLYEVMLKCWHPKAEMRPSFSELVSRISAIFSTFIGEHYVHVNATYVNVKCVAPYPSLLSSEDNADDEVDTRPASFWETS

| Molecule | binding to cell surface MET |
| --- | --- |
| B1 | can bind to cell surface MET |
| B2 | can bind to cell surface MET |
| B3 | can bind to cell surface MET |
| B4 | can bind to cell surface MET |
| B5 | can bind to cell surface MET |
| B6 | can bind to cell surface MET |

molecular target: T2, c-MET on the surface of Hcc827 or Hcc827-GR6 cells (human, UniProt P08581 25-1390); test: phage flow cytometry on Hcc827-GR6 cells, bound phage detected with FITC anti-M13 antibody; details: not given
T2 construct: whole, on cells; The cells express the receptor endogenously, and MET is amplified in Hcc827-GR6; also called cell surface MET
Protocol: as §1, with “$2 \sim 5 \times 10^5$” for “2˜5×105”

T2 sequence (P08581 25-1390): as above

| Molecule | binding result |
| --- | --- |
| B7 | binds |
| B8 | binds |
| B9 | binds |
| B10 | binds |
| B11 | binds |
